T1: N-terminal GST-tagged GlyRS (human, UniProt P41250 55-739)
T1 construct: also called GST-GlyRS; immobilized GlyRS; not shown: N-terminal GST tag from a modified pET28a vector
T1 sequence: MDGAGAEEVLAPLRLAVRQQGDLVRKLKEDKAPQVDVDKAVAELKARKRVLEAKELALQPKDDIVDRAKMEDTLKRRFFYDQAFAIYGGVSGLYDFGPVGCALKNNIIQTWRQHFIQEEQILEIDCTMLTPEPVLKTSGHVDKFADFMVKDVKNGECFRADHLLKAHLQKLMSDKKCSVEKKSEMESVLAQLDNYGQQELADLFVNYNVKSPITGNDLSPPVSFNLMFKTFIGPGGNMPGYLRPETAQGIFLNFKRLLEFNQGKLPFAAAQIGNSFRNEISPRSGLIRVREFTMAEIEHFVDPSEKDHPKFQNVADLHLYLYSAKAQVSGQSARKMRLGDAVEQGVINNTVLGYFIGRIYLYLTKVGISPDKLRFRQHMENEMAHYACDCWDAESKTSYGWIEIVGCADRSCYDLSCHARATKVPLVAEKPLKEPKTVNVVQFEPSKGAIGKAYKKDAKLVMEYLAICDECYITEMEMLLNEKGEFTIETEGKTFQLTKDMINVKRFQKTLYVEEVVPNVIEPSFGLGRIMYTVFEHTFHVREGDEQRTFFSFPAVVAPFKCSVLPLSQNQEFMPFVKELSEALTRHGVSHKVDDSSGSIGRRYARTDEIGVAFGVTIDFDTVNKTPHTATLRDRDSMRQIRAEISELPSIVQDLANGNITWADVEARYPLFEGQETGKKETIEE

T2: GST-APPBP1 (UniProt Q13564 1-534, limits assumed)
T2 construct: Fractions of a Superdex 200 run of GST-APPBP1/UBA3 that held only GST-APPBP1; also called APPBP1 subunit alone; E1 regulatory subunit APPBP1; not shown: GST tag
T2 sequence (looked up): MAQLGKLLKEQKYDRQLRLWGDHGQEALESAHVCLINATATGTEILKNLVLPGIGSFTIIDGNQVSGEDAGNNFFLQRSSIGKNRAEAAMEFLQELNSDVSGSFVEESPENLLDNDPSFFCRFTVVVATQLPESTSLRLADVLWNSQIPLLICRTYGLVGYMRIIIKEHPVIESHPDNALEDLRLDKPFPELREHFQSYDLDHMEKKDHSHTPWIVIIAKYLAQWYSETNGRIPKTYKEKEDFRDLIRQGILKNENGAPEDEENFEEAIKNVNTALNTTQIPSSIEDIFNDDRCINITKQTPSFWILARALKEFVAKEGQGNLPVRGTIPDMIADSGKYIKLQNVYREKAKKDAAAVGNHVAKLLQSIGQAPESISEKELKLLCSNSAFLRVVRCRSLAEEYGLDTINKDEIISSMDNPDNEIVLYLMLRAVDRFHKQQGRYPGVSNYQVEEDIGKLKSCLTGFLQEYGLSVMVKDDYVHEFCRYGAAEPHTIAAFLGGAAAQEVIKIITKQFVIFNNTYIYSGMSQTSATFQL

T3: E1 for neddylation, APPBP1/UBA3 heterodimer (UniProt Q13564 1-534; Q8TBC4 22-463)
T3 construct: GST-tagged or untagged preparations are mentioned; also called GST-APPBP1/UBA3; NAE; not shown: GST tag on APPBP1 (GST-APPBP1/UBA3)
T3 sequence (looked up) 1: T2 sequence (looked up)
T3 sequence (looked up) 2: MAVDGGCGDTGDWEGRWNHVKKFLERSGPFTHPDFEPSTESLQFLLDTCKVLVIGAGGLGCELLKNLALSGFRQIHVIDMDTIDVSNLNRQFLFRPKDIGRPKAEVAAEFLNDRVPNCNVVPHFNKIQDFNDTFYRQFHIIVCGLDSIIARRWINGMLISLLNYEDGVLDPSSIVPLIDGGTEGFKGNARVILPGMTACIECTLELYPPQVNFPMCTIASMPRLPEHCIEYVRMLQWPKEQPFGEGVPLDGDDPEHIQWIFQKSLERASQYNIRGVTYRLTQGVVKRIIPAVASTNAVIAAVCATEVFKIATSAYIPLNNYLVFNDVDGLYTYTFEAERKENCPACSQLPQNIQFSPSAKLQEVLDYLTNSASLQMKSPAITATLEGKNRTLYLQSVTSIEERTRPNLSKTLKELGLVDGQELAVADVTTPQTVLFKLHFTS

T4: GlyRS in HEK293 cells (endogenous) (human, UniProt P41250 55-739, limits assumed)
T4 sequence: T1 sequence

B1: GST-Ubc12 (enzyme)
chain: MIKLFSLKQQKKEEESAGGTKGSSKKASAAQLRIQKDINELNLPKTCDISFSDPDDLLNFKLVICPDEGFYKSGKFVFSFKVGQGYPHDPPKVKCETMVYHPNIDLEGNVCLNILREDWKPVLTINSIIYGLQYLFLEPNPEDPLNKEAAEVLQNNRRLFEQNVQRSMRGGYIGSTYFERCLK
modifications: N-terminal GST fusion, not carried in the letters
notes: Bait on glutathione beads in the GST pull-down; Band between 42 and 57 kDa in the input blot; also called GST-tagged Ubc12; not shown: GST tag and the linker to Ubc12
B2: Ubc12 (enzyme, UniProt P61081 1-183, looked up)
chain: B1 chain
notes: GST-tagged or untagged preparations are mentioned; also called Ubc12 alone; apo Ubc12
B3: ABD (V541-E685) of GlyRS (enzyme)
chain: VREGDEQRTFFSFPAVVAPFKCSVLPLSQNQEFMPFVKELSEALTRHGVSHKVDDSSGSIGRRYARTDEIGVAFGVTIDFDTVNKTPHTATLRDRDSMRQIRAEISELPSIVQDLANGNITWADVEARYPLFEGQETGKKETIEE
notes: Cloned, expressed and purified in a similar way as the full-length GlyRS; also called ABD GlyRS; ABD domain alone
B4: His-tagged human TrpRS (tryptophanyl-tRNA synthetase) (enzyme, UniProt P23381 1-471, looked up)
chain: MPNSEPASLLELFNSIATQGELVRSLKAGNASKDEIDSAVKMLVSLKMSYKAAAGEDYKADCPPGNPAPTSNHGPDATEAEEDFVDPWTVQTSSAKGIDYDKLIVRFGSSKIDKELINRIERATGQRPHHFLRRGIFFSHRDMNQVLDAYENKKPFYLYTGRGPSSEAMHVGHLIPFIFTKWLQDVFNVPLVIQMTDDEKYLWKDLTLDQAYSYAVENAKDIIACGFDINKTFIFSDLDYMGMSSGFYKNVVKIQKHVTFNQVKGIFGFTDSDCIGKISFPAIQAAPSFSNSFPQIFRDRTDIQCLIPCAIDQDPYFRMTRDVAPRIGYPKPALLHSTFFPALQGAQTKMSASDPNSSIFLTDTAKQIKTKVNKHAFSGGRDTIEEHRQFGGNCDVDVSFMYLTFFLEDDDKLEQIRKDYTSGAMLTGELKKALIEVLQPLIAEHQARRKEVTDEIVKEFMTPRKLSFDFQ
notes: not shown: His tag
B5: full-length human GlyRS (enzyme)
chain: T1 sequence
notes: A tag-free preparation is described (N-terminal His-SUMO tag removed by Ulp1); the His-tagged preparation may have been used in some of those; also called full-length GlyRS; tag-free full-length GlyRS
B6: His-tagged full-length human GlyRS (glycyl-tRNA synthetase) (enzyme)
chain: T1 sequence
notes: also called His-tagged GlyRS; purified human GlyRS protein; not shown: His tag
B7: ΔWHEP GlyRS (enzyme)
chain: IVDRAKMEDTLKRRFFYDQAFAIYGGVSGLYDFGPVGCALKNNIIQTWRQHFIQEEQILEIDCTMLTPEPVLKTSGHVDKFADFMVKDVKNGECFRADHLLKAHLQKLMSDKKCSVEKKSEMESVLAQLDNYGQQELADLFVNYNVKSPITGNDLSPPVSFNLMFKTFIGPGGNMPGYLRPETAQGIFLNFKRLLEFNQGKLPFAAAQIGNSFRNEISPRSGLIRVREFTMAEIEHFVDPSEKDHPKFQNVADLHLYLYSAKAQVSGQSARKMRLGDAVEQGVINNTVLGYFIGRIYLYLTKVGISPDKLRFRQHMENEMAHYACDCWDAESKTSYGWIEIVGCADRSCYDLSCHARATKVPLVAEKPLKEPKTVNVVQFEPSKGAIGKAYKKDAKLVMEYLAICDECYITEMEMLLNEKGEFTIETEGKTFQLTKDMINVKRFQKTLYVEEVVPNVIEPSFGLGRIMYTVFEHTFHVREGDEQRTFFSFPAVVAPFKCSVLPLSQNQEFMPFVKELSEALTRHGVSHKVDDSSGSIGRRYARTDEIGVAFGVTIDFDTVNKTPHTATLRDRDSMRQIRAEISELPSIVQDLANGNITWADVEARYPLFEGQETGKKETIEE
notes: also called AWHEP GlyRS; core synthetase; not shown: His tag
B8: APPBP1 in HEK293 cells (endogenous) (enzyme, UniProt Q13564 2-534, looked up)
chain: AQLGKLLKEQKYDRQLRLWGDHGQEALESAHVCLINATATGTEILKNLVLPGIGSFTIIDGNQVSGEDAGNNFFLQRSSIGKNRAEAAMEFLQELNSDVSGSFVEESPENLLDNDPSFFCRFTVVVATQLPESTSLRLADVLWNSQIPLLICRTYGLVGYMRIIIKEHPVIESHPDNALEDLRLDKPFPELREHFQSYDLDHMEKKDHSHTPWIVIIAKYLAQWYSETNGRIPKTYKEKEDFRDLIRQGILKNENGAPEDEENFEEAIKNVNTALNTTQIPSSIEDIFNDDRCINITKQTPSFWILARALKEFVAKEGQGNLPVRGTIPDMIADSGKYIKLQNVYREKAKKDAAAVGNHVAKLLQSIGQAPESISEKELKLLCSNSAFLRVVRCRSLAEEYGLDTINKDEIISSMDNPDNEIVLYLMLRAVDRFHKQQGRYPGVSNYQVEEDIGKLKSCLTGFLQEYGLSVMVKDDYVHEFCRYGAAEPHTIAAFLGGAAAQEVIKIITKQFVIFNNTYIYSGMSQTSATFQL

Legend:
[1] = target: B3; test: GST pull-down on glutathione beads, blot anti-GlyRS
[2] = target: T1, N-terminal GST-tagged GlyRS; test: biolayer interferometry (Octet), GlyRS immobilized, 30°C
[3] = target: T2, GST-APPBP1; test: biolayer interferometry, APPBP1 immobilized, ABD GlyRS 0.58-4.6 µM
[4] = target: T3, E1 for neddylation, APPBP1/UBA3 …; test: biolayer interferometry, E1 (APPBP1/UBA3) immobilized, analyte 62.5-500 nM
[5] = target: T5, ubiquitin (UniProt P0CG48 1-76); test: His-tag pull-down
T5 construct: Bought protein

[6] = target: T4, GlyRS in HEK293 cells (endogenous); test: co-immunoprecipitation, HEK293 cells

Binder: B1
binding result [1]: no binding

Binder: B2
Kd [2]: 488 nM

Binder: B3
Kd [3]: 144 nM
Kd [4]: 187 nM

Binder: B4
binding result [5]: no binding

Binder: B5
Kd [4]: 159 nM

Binder: B6
binding result [5]: no binding

Binder: B7
Kd [4]: 177 nM

Binder: B8
binding result [6]: binds

— patent publication US20190381086A1 (Scripps Research, published 2019)
